From US20130142732, “RECOMBINANT FLUORESCENT NANOPARTICLES” (KOREA UNIVERSITY RESEARCH AND BUSINESS FOUNDATION, published 2013)

How the values were obtained:
[1] = target: T1, PDGF-BB (UniProt P01127 P01127:82-190); experiment: printed as 5.0 x 1011 mol/L, exponent sign lost; sandwich plate assay with biotin-aptamer capture, PBS, 37 C, linearized Langmuir; conditions: tags: Sigma-Aldrich; chain copies: 2 (homodimer, inferred); label: Cy3
Protocol: (§1) On the Basis of the linearized form of the Langmur absorption isotherm and the linear curve of FIG. 5C, the dissociation constants (KD) were determined by a PDGF-BB analysis method using each of the DNA-aptamer-conjugated gFFNP, eGFP, and Cy3, and the results are shown in Table 7.

[2] = target: T1, PDGF-BB; experiment: printed as 4.0 x 1011 mol/L, exponent sign lost; sandwich plate assay with biotin-aptamer capture, PBS, 37 C, linearized Langmuir; conditions: tags: Sigma-Aldrich; chain copies: 2 (homodimer, inferred); label: eGFP
Protocol: as §1

T1 sequence (P01127 82-190, one chain of several): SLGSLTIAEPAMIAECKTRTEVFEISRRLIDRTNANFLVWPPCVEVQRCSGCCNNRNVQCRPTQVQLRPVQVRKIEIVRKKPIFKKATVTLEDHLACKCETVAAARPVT

Row | Binder | Kd [1] [nM] | Kd [2] [nM]
1 | CACAGGCTACGGCACGTAGAGCATCACCATGATCCTGTGT (ssDNA, 5'-Cy3) [PDGF-BB DNA aptamer Cy3-modified] | 0.05 | –
2 | CACAGGCTACGGCACGTAGAGCATCACCATGATCCTGTGT (ssDNA, 5'-NH2-(CH2)6, SSMCC-coupled to eGFP(S175C)) [PDGF-BB DNA aptamer conjugated to eGFP] | – | 0.04
